Earlier results in article PMC4847942.
pKd: −log10 of the molar value. Like-named read-outs stand apart in the source and are kept apart here.

Key:
[1] = target: Bcl-XL (Homo sapiens) (UniProt Q07817)
[2] = target: Bcl-XL (Homo sapiens) (UniProt Q07817); remark: listed apart in the source

Sequence of UniProt Q07817 (Q07817 whole entry): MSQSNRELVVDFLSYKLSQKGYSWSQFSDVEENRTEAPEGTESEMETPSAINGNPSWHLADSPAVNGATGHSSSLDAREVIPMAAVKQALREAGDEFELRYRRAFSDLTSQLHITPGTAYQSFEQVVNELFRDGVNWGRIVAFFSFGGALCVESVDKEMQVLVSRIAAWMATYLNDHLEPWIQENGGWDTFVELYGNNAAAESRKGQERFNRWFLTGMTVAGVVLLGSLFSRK

Substance | pKd [1] | pKd [2]
Bid BH3 helix BH3 (from UniProt P55957) | 6.57 | –
stapled Bid BH3 helix BH3 (from UniProt P55957) | – | 7.41
